# According to patent publication US20190064166:
# Tested on: PAPPA2 (pappalysin-2), full-length urinary protein from vAKI patients
substance,measurement,value
Cathepsin D,"digestion of urinary PAPPA2, loss of PAPPA2 immunoreactivity on immunoblot",the addition of cathepsin D to vAKI samples digested PAPPA2
